From patent publication US20130058960A1 (Genentech, published 2013)

T1: TAT425 polypeptide (Homo sapiens (Human), UniProt O15439 1-1325)
T1 construct: no signal peptide or domain limits are stated; also called TAT425 protein; polypeptide encoded by DNA340411
T1 sequence: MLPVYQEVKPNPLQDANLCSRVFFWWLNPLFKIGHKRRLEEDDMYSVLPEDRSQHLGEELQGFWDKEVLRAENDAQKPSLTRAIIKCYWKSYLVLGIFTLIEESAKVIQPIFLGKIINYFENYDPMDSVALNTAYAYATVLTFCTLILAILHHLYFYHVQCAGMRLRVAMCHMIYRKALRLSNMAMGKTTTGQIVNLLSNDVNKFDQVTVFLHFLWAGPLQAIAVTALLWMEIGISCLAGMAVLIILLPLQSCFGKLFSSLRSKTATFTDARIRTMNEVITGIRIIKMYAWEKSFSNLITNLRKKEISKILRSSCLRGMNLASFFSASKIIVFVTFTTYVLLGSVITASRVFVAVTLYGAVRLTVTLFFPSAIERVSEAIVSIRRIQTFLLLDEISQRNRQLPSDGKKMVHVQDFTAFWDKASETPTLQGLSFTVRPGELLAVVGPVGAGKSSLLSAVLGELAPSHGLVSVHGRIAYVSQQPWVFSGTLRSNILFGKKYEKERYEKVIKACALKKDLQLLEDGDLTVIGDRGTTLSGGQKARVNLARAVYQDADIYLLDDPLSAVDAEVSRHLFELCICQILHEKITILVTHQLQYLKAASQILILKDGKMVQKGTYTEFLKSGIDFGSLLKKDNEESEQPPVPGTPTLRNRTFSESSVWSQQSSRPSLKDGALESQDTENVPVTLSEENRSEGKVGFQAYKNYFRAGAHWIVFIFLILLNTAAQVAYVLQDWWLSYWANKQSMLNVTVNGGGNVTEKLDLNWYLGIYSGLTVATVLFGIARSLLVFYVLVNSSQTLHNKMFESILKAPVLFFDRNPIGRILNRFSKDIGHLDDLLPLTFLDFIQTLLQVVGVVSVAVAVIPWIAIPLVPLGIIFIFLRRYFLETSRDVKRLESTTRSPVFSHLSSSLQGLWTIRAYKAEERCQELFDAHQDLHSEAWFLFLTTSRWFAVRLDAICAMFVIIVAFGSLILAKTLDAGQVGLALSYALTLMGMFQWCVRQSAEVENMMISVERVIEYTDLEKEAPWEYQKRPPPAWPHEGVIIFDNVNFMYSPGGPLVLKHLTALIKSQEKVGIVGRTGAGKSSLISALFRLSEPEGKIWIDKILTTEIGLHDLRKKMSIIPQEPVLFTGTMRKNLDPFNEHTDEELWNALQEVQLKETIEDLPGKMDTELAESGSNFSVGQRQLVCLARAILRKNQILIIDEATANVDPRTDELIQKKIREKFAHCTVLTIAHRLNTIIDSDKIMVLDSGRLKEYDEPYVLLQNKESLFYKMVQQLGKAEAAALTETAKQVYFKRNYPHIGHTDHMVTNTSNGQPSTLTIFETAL

B1: anti-TAT425 monoclonal antibody 2E4.6.1 (antibody, V domains shown)
VH: EVQLQQSGAELVKPGASVKLSCTTSGFNIKDYYMQWVKQRTGQGLEWIGRIDPEDGETKNAPKFQGKATITADTSSNTAYLQLSSLTSEDTAVYFCAREGYYGNGYAMDYWGQGTSVTVSS
VL: DVLMTQTPLSLPVSLGDQASISCRSSQSIVHSNGNTYLDWYLQKPGQSPKLLIYKVSNRFSGVPDRFSGSGSGTDFTLKISRVEAEDLGVYYCFQGSHVPWTFGGGTKLEIKR
B2: anti-TAT425 monoclonal antibody 13H2.28.2 (antibody, V domains shown)
VH: QVQLQQPGAELVRPGASVKLSCKASGYSFTSYWMNWVRQRPGQGLEWIGMIHPSDSETRLNQKFKDKATLTVDKSSSTAYMQLSSPTSDDSAVYFCTREAITAVHFWGHGTTLTVSS
VL: QAVVTQESALTTSPGETVTLTCRSSTGAVTTSNYANWVQEKPDHLFTGLIGGTNNRAPGVPARFSGSLIGDKAALTITGAQTEDEAIYFCALWYSNHWVFGGGTKLTVLG
B3: anti-TAT425 monoclonal antibody 14E7.17.1 (antibody, V domains shown)
VH: QVQLKESGPGLVAPSQSLSITCTVSGFSLTTYGVSWVRQPPGKGLEWLGLIWGDGSINYHSALISRLSISKDNSKSQVFLKLNSLQTDDTATYYCAKGWGGLYVMDYWGQGTSVTVAS
VL: DIQMTQSPASLSASVGETVTITCRSSENIYSYLAWYQQKLGKSPQLLVYNAKTLAEGVPSRFSGSGSGTQFSLKIYSLQSADFGSYYCQHHFGSPPTFGGGTKLESKR

What follows are binders tested against T1, TAT425 polypeptide (assay: Western blot, ELISA, FACS and/or immunohistochemistry on cells expressing TAT425).

Binding result, binds:
B1
B2
B3
